Experimental data from article PMC7215194 (Heliyon, 2020).

Target: dansyl-calmodulin (recombinant rat CaM, dansylated) (rat, UniProt P0DP29 1-149, dansylated with dansyl chloride)
Assay: other fluorescence titration

binding result: binds
Binder: RKLWKRFFCFLRRS
